According to PMC10004559, “Identification of residues involved in allosteric signal transmission from amino acid binding site of pyruvate kinase muscle isoform 2” (PLOS ONE, 2023):

B1: PKM2 R106A (enzyme)
chain: not shown
notes: Pyruvate kinase muscle isoform 2 (PKM2), human, UniProt P14618, with R106A; cloned in pET28a; No tag cleavage is described
B2: PKM2 N70D (enzyme)
chain: not shown
notes: Pyruvate kinase muscle isoform 2 (PKM2), human, UniProt P14618, with N70D; cloned in pET28a; not shown: His6, N-terminal, kept
B3: PKM2 N75L (enzyme)
chain: not shown
notes: Pyruvate kinase muscle isoform 2 (PKM2), human, UniProt P14618, with N75L; cloned in pET28a; No tag cleavage is described

Target: the molecule itself
Assay: SEC; 0.1 mg/ml enzyme in storage buffer (20-50 mM Tris-HCl pH 7.5, 150 mM KCl, 5% glycerol, 0.5 mM EDTA) with 10 mM THP, incubated 15 min without or with 10 mM Asn/Asp/Val/Cys; Superdex 200 10/300 GL, 0.5 ml/min; self-association, tetramer against dimer/monomer

Row | Protein | stoichiometry N
1 | B1 | 4
2 | B2 | 4
3 | B3 | 4
